The target in this test is T1, SULU1-coiled-coil2 GST fusion (Construct 1; amino acids 752-898) (human, UniProt Q5R4F3 752-898 (Pongo abelii entry)).
T1 construct: Immobilised bait in T7 phage display; also called SULU1 ccl; not shown: glutathione S-transferase (GST) of vector pGEX-4T; baits were made as C-terminal fusions to GST, expressed in E. coli
T1 sequence: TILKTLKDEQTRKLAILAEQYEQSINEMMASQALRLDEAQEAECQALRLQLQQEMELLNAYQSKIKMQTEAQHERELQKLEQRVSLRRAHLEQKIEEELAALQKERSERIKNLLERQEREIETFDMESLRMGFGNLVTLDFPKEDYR
As to the kind of experiment: T7 phage display, H441 cDNA library, GST-fused bait; interactor listed.

B1: GEK2 coiled-coil domain displayed on T7 phage (677-820 of SEQ #26) (other)
chain: KESMKQKMEEHTQKKQLLDRDFVAKQKEDLELAMKRLTTDNRREICDKERECLMKKQELLRDREAALWEMEEHQLQERHQLVKQQLKDQYFLQRHELLRKHEKEREQMQRYNQRMIEQLKVRQQQEKARLPKIQRSEGKTRMAM
notes: also called GEK2 cc dom; GEK2 CC1; not shown: T7 phage coat protein of vector T7Select1-1b to which the cDNA fragment is fused
Regarding B1, the binding result is “binds”.
